The results in this text go back to publication PMC3156286 (Journal of molecular biology, 2011).

In general, stoichiometry N refers to the number of molecules, sites or subunits per partner or assembly.

This data set concerns the molecule itself. Kind of data set: SEC. A general note: SEC sorts molecules by how far they enter the pores of the column.

B1: full length Nhp2p (natural protein, S. cerevisiae, UniProt P32495 1-156, looked up)
chain: MGKDNKEHKESKESKTVDNYEARMPAVLPFAKPLASKKLNKKVLKTVKKASKAKNVKRGVKEVVKALRKGEKGLVVIAGDISPADVISHIPVLCEDHSVPYIFIPSKQDLGAAGATKRPTSVVFIVPGSNKKKDGKNKEEEYKESFNEVVKEVQAL
With B1, the “stoichiometry N” value came to 2.
